From patent US20240181073A1, “Antibody-Drug Conjugates Comprising an Anti-BCMA Antibody” (Sorrento Therapeutics, Inc., priority 2021, published 2024) come the findings set out here.

The labels stand for the following.
B1: anti-BCMA-AB1-Compound 1 (antibody, human IgG1, V domains shown)
VH: EVQLVESGGGLVKPGGSLRLSCAASGFTSSTAWMSWVRQAPGKGLEWVGRIKSKSDGGTTDYAAPVKGRFTISRDDSKNTLFLQMNSLKTEDTAVYYCAKGGGTYGYWGQGTTVTVSS
VL: QSVLTQPASVSGSPGQSVTISCTGTSSAHGGHYYVSWYQQHPGKAPKLMIYDVSNRPSGVSNRFSGSKSGNTASLTISGLQAEDEADYYCGSYTSSGSYVFGTGTKLTVL
modifications: drug-linker Compound 1 on antibody cysteine thiols (positions not stated)
B2: anti-BCMA-AB1-Compound 2 (antibody, human IgG1, V domains shown)
VH: EVQLVESGGGLVKPGGSLRLSCAASGFTSSTAWMSWVRQAPGKGLEWVGRIKSKSDGGTTDYAAPVKGRFTISRDDSKNTLFLQMNSLKTEDTAVYYCAKGGGTYGYWGQGTTVTVSS
VL: QSVLTQPASVSGSPGQSVTISCTGTSSAHGGHYYVSWYQQHPGKAPKLMIYDVSNRPSGVSNRFSGSKSGNTASLTISGLQAEDEADYYCGSYTSSGSYVFGTGTKLTVL
modifications: drug-linker Compound 2 on antibody cysteine thiols (positions not stated)
B3: anti-BCMA-AB1-Compound 8 (antibody, human IgG1, V domains shown)
VH: EVQLVESGGGLVKPGGSLRLSCAASGFTSSTAWMSWVRQAPGKGLEWVGRIKSKSDGGTTDYAAPVKGRFTISRDDSKNTLFLQMNSLKTEDTAVYYCAKGGGTYGYWGQGTTVTVSS
VL: QSVLTQPASVSGSPGQSVTISCTGTSSAHGGHYYVSWYQQHPGKAPKLMIYDVSNRPSGVSNRFSGSKSGNTASLTISGLQAEDEADYYCGSYTSSGSYVFGTGTKLTVL
modifications: drug-linker Compound 8 on antibody cysteine thiols (maleimide conjugation; positions not stated)
B4: anti-BCMA-AB1-Compound 4 (antibody, human IgG1, V domains shown)
VH: EVQLVESGGGLVKPGGSLRLSCAASGFTSSTAWMSWVRQAPGKGLEWVGRIKSKSDGGTTDYAAPVKGRFTISRDDSKNTLFLQMNSLKTEDTAVYYCAKGGGTYGYWGQGTTVTVSS
VL: QSVLTQPASVSGSPGQSVTISCTGTSSAHGGHYYVSWYQQHPGKAPKLMIYDVSNRPSGVSNRFSGSKSGNTASLTISGLQAEDEADYYCGSYTSSGSYVFGTGTKLTVL
modifications: drug-linker Compound 4 on antibody cysteine thiols (C-lock conjugation; positions not stated)
B5: anti-BCMA-AB1-Compound 5 (antibody, human IgG1, V domains shown)
VH: EVQLVESGGGLVKPGGSLRLSCAASGFTSSTAWMSWVRQAPGKGLEWVGRIKSKSDGGTTDYAAPVKGRFTISRDDSKNTLFLQMNSLKTEDTAVYYCAKGGGTYGYWGQGTTVTVSS
VL: QSVLTQPASVSGSPGQSVTISCTGTSSAHGGHYYVSWYQQHPGKAPKLMIYDVSNRPSGVSNRFSGSKSGNTASLTISGLQAEDEADYYCGSYTSSGSYVFGTGTKLTVL
modifications: drug-linker Compound 5 on antibody cysteine thiols (C-lock conjugation; positions not stated)
B6: anti-BCMA-AB1-Compound 6 (antibody, human IgG1, V domains shown)
VH: EVQLVESGGGLVKPGGSLRLSCAASGFTSSTAWMSWVRQAPGKGLEWVGRIKSKSDGGTTDYAAPVKGRFTISRDDSKNTLFLQMNSLKTEDTAVYYCAKGGGTYGYWGQGTTVTVSS
VL: QSVLTQPASVSGSPGQSVTISCTGTSSAHGGHYYVSWYQQHPGKAPKLMIYDVSNRPSGVSNRFSGSKSGNTASLTISGLQAEDEADYYCGSYTSSGSYVFGTGTKLTVL
modifications: drug-linker Compound 6 on antibody cysteine thiols (C-lock conjugation; positions not stated)
B7: anti-BCMA-AB1-Compound 7 (antibody, human IgG1, V domains shown)
VH: EVQLVESGGGLVKPGGSLRLSCAASGFTSSTAWMSWVRQAPGKGLEWVGRIKSKSDGGTTDYAAPVKGRFTISRDDSKNTLFLQMNSLKTEDTAVYYCAKGGGTYGYWGQGTTVTVSS
VL: QSVLTQPASVSGSPGQSVTISCTGTSSAHGGHYYVSWYQQHPGKAPKLMIYDVSNRPSGVSNRFSGSKSGNTASLTISGLQAEDEADYYCGSYTSSGSYVFGTGTKLTVL
modifications: drug-linker Compound 7 on antibody cysteine thiols (maleimide conjugation; positions not stated)
B8: anti-BCMA-AB2-Compound 7 (antibody, V domains shown)
VH: EVQLVESGGGLVKPGGSLRLSCAASGFTSSTAWMSWVRQAPGKGLEWVGRIKSKSDGGTTDYAAPVKGRFTISRDDSKNTLFLQMNSLKTEDTAVYYCAKGGGTYGYWGQGTTVTVSS
VL: QSALTQPASVSGSPGQSVTISCTGTSSDGGGHTYVSWYQQHPGKAPKLMIYDVSNRPSWVSNRFSGSKSGNTASLTISGLQAEDEADYYCGSYTSSGSYVFGTGTKLTVL
modifications: drug-linker Compound 7 on antibody cysteine thiols (positions not stated)
B9: anti-BCMA-AB2-Compound 4 (antibody, V domains shown)
VH: EVQLVESGGGLVKPGGSLRLSCAASGFTSSTAWMSWVRQAPGKGLEWVGRIKSKSDGGTTDYAAPVKGRFTISRDDSKNTLFLQMNSLKTEDTAVYYCAKGGGTYGYWGQGTTVTVSS
VL: QSALTQPASVSGSPGQSVTISCTGTSSDGGGHTYVSWYQQHPGKAPKLMIYDVSNRPSWVSNRFSGSKSGNTASLTISGLQAEDEADYYCGSYTSSGSYVFGTGTKLTVL
modifications: drug-linker Compound 4 on antibody cysteine thiols (positions not stated)
B10: anti-BCMA-AB2-Compound 8 (antibody, V domains shown)
VH: EVQLVESGGGLVKPGGSLRLSCAASGFTSSTAWMSWVRQAPGKGLEWVGRIKSKSDGGTTDYAAPVKGRFTISRDDSKNTLFLQMNSLKTEDTAVYYCAKGGGTYGYWGQGTTVTVSS
VL: QSALTQPASVSGSPGQSVTISCTGTSSDGGGHTYVSWYQQHPGKAPKLMIYDVSNRPSWVSNRFSGSKSGNTASLTISGLQAEDEADYYCGSYTSSGSYVFGTGTKLTVL
modifications: drug-linker Compound 8 on antibody cysteine thiols (positions not stated)
B11: anti-BCMA-AB2-Compound 5 (antibody, V domains shown)
VH: EVQLVESGGGLVKPGGSLRLSCAASGFTSSTAWMSWVRQAPGKGLEWVGRIKSKSDGGTTDYAAPVKGRFTISRDDSKNTLFLQMNSLKTEDTAVYYCAKGGGTYGYWGQGTTVTVSS
VL: QSALTQPASVSGSPGQSVTISCTGTSSDGGGHTYVSWYQQHPGKAPKLMIYDVSNRPSWVSNRFSGSKSGNTASLTISGLQAEDEADYYCGSYTSSGSYVFGTGTKLTVL
modifications: drug-linker Compound 5 on antibody cysteine thiols (positions not stated)
B12: anti-BCMA-AB2-Compound 3 (antibody, V domains shown)
VH: EVQLVESGGGLVKPGGSLRLSCAASGFTSSTAWMSWVRQAPGKGLEWVGRIKSKSDGGTTDYAAPVKGRFTISRDDSKNTLFLQMNSLKTEDTAVYYCAKGGGTYGYWGQGTTVTVSS
VL: QSALTQPASVSGSPGQSVTISCTGTSSDGGGHTYVSWYQQHPGKAPKLMIYDVSNRPSWVSNRFSGSKSGNTASLTISGLQAEDEADYYCGSYTSSGSYVFGTGTKLTVL
modifications: drug-linker Compound 3 on antibody cysteine thiols (positions not stated)
B13: anti-BCMA-AB2-Compound 6 (antibody, V domains shown)
VH: EVQLVESGGGLVKPGGSLRLSCAASGFTSSTAWMSWVRQAPGKGLEWVGRIKSKSDGGTTDYAAPVKGRFTISRDDSKNTLFLQMNSLKTEDTAVYYCAKGGGTYGYWGQGTTVTVSS
VL: QSALTQPASVSGSPGQSVTISCTGTSSDGGGHTYVSWYQQHPGKAPKLMIYDVSNRPSWVSNRFSGSKSGNTASLTISGLQAEDEADYYCGSYTSSGSYVFGTGTKLTVL
modifications: drug-linker Compound 6 on antibody cysteine thiols (positions not stated)

For one test, the target named is T1, Human BCMA (B Cell Maturation Antigen) (human, UniProt Q02223 1-184).
T1 sequence: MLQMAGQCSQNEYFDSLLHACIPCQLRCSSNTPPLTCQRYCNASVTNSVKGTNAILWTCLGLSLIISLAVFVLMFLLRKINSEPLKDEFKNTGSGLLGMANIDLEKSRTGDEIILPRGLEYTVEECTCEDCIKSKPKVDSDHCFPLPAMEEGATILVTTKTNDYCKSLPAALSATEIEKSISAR
Nature of the test: cell-based or functional assay.
As to B1, the “EC50 of cell viability (Cell Titer-Glo), MM.1R (BCMA+) cells, 5-day assay” value is 1.02 nM and the “EC50 of cell viability (Cell Titer-Glo), NCI-H929 (BCMA+) cells, 5-day assay” value was determined as 0.168 nM.

Take B2: the “EC50 of cell viability (Cell Titer-Glo), MM.1R (BCMA+) cells, 5-day assay” value came to 0.987 nM and the “EC50 of cell viability (Cell Titer-Glo), NCI-H929 (BCMA+) cells, 5-day assay” value was 0.316 nM.

A further test addresses T1, Human BCMA (B Cell Maturation Antigen). Nature of the test: cell-based or functional assay. The source holds these as a separate data set.
For the molecule B3, the “EC50 of cell viability (Cell Titer-Glo), MM.1R (BCMA+) cells, 4-day assay” value (from here on “EC50 … MM.1R (BCMA+) cells, 4-day assay”) came to 348 nM and the “EC50 of cell viability (Cell Titer-Glo), NCI-H929 (BCMA+) cells, 4-day assay” value (from here on “EC50 … NCI-H929 (BCMA+) cells, 4-day assay”) was determined as 5.15 nM.

B4: the “EC50 … MM.1R (BCMA+) cells, 4-day assay” value was above 1000 nM and the “EC50 … NCI-H929 (BCMA+) cells, 4-day assay” value worked out at 13.1 nM.

In the case of B5, the “EC50 … MM.1R (BCMA+) cells, 4-day assay” value was 20.5 nM and the “EC50 … NCI-H929 (BCMA+) cells, 4-day assay” value came out at 3.04 nM.

For B6, the “EC50 … MM.1R (BCMA+) cells, 4-day assay” value came to 16.6 nM and the “EC50 … NCI-H929 (BCMA+) cells, 4-day assay” value stood at 2.38 nM.

On to B7, for which the “EC50 … MM.1R (BCMA+) cells, 4-day assay” value was 37.7 nM and the “EC50 … NCI-H929 (BCMA+) cells, 4-day assay” value was determined as 2.64 nM.

Another test has the same target. Nature of the test: cell-based or functional assay. The source holds these as a separate data set.
B8: the “EC50 of cell viability (Cell Titer-Glo), MM.1R (BCMA+) cells” value was 259 nM and the “EC50 of cell viability (Cell Titer-Glo), NCI-H929 (BCMA+) cells” value stood at 19.4 nM.

Regarding B9, the “EC50 of cell viability (Cell Titer-Glo), MM.1R (BCMA+) cells” value was above 1000 nM and the “EC50 of cell viability (Cell Titer-Glo), NCI-H929 (BCMA+) cells” value came to 59 nM.

For B10, the “EC50 of cell viability (Cell Titer-Glo), MM.1R (BCMA+) cells” value was above 1000 nM and the “EC50 of cell viability (Cell Titer-Glo), NCI-H929 (BCMA+) cells” value was 29.7 nM.

On to B11, for which the “EC50 of cell viability (Cell Titer-Glo), MM.1R (BCMA+) cells” value is 143 nM and the “EC50 of cell viability (Cell Titer-Glo), NCI-H929 (BCMA+) cells” value is 10 nM.

For the molecule B12, the “EC50 of cell viability (Cell Titer-Glo), MM.1R (BCMA+) cells” value amounted to 55.3 nM and the “EC50 of cell viability (Cell Titer-Glo), NCI-H929 (BCMA+) cells” value came to 7.31 nM.

B13: the “EC50 of cell viability (Cell Titer-Glo), MM.1R (BCMA+) cells” value stood at 129 nM and the “EC50 of cell viability (Cell Titer-Glo), NCI-H929 (BCMA+) cells” value was determined as 9.44 nM.
